Experimental findings from patent publication US20230087570A1 (NATIONAL CANCER CENTER, published 2023) are described below.

The assay has as its target T1, mouse TIM-3 expressed on cells (mouse, UniProt Q8VIM0 20-281).
T1 construct: whole, on cells; also called mTIM-3
Put plainly: flow cytometry on mouse primary glial cells (FIG. 7 legend). The method, then: FACS analysis was performed to determine whether the selected antibody, hTIM-3_NCC1, specifically binds to mouse TIM-3 as well as human TIM-3.
Specifically, 0.5 μg of hTIM-3_NCC1 antibody was reacted to mouse primary glial cells for 30 minutes, and then stained with a secondary antibody (APC-human IgG Fc; Biolegend, cat #409305). In addition, mouse CD11b⁺ cells overexpressing mouse TIM-3 (3×10⁵ cells) were separated using a-BV421-conjugated anti-CD11b antibody (BD, cat #562605) and then 0.5 μg of hTIM-3_NCC1 antibody and PE-conjugated anti-mouse were reacted for 30 minutes. These cells were surface-stained with a secondary antibody (APC-Human IgG Fc) and then measured by flow cytometry.

T1 sequence (Q8VIM0 20-281): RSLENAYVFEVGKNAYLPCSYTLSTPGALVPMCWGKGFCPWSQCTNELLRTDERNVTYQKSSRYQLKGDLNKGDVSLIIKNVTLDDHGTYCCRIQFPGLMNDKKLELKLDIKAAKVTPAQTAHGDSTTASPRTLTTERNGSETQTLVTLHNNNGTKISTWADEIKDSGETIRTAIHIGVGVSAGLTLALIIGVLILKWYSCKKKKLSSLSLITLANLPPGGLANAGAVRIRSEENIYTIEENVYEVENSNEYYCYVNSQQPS

B1: hTIM-3_NCC1 (Fc fusion)
scFv: EVQLVESGGGLVQPGGSLRLSCAASGSIFSNGYMTWYRQAPGKGLELVSSINSRGVTNYADSVKGRFTISRDNSKNTLYLQMNSLRAEDTAVYYCAALLPHEIRKYWGQGTQVTVSSGGGSHGGGSGGGSVDDIQMTQSPDSLAVSLGERATINCKSSQSVFYNSNNKNYLGWYQKKPGQPPKLLIFWASTRESGVPDRFSGSGSGTDFTLTISSLQAEDVAVYYCQQYYSTPRTLGGGTKVDIKR
notes: Human scFv from a naive phage library, tested as scFv-hIgG (hIgG1) and detected with anti-human IgG secondary antibodies; also called scFv-TIM3 #4; ScFV-TIM3 #4; not shown: human IgG1 part (named only as 'hscFv-hIgG1')
As for B1, the binding result is reported as “binds”.
